Target: repeat-domain of Tau (Tau^RD) (human, UniProt P10636-8 244-373)
Assay: co-IP

Sequence of repeat-domain of Tau (Tau^RD) (P10636 561-690): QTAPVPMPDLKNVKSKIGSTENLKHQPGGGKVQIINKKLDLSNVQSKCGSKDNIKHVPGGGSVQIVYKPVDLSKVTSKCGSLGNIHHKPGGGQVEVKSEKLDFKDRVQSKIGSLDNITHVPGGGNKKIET

B1: microglial P2Y12 receptor (receptor, mouse (endogenous in N9), UniProt Q9CPV9 1-347, looked up)
chain: MDVPGVNTTSANTTFSPGTSTLCVRDYKITQVLFPLLYTVLFFAGLITNSLAMRIFFQIRSKSNFIIFLKNTVISDLLMILTFPFKILSDAKLGAGPLRTLVCQVTSVTFYFTMYISISFLGLITIDRYLKTTRPFKTSSPSNLLGAKILSVVIWAFMFLISLPNMILTNRRPKDKDVTKCSFLKSEFGLVWHEIVNYICQVIFWINFLIVIVCYSLITKELYRSYVRTRGSAKVPKKKVNVKVFIIIAVFFICFVPFHFARIPYTLSQTRAVFDCSAENTLFYVKESTLWLTSLNACLDPFIYFFLCKSFRNSLTSMLRCSNSTSTSGTNKKKGQEGGEPSEETPM
- fold band intensity against cell control, 1 uM Tau^RD: 1.2 fold
- fold band intensity against cell control, 5 uM Tau^RD: 2 fold

Reference: paper doi:10.1101/2021.05.24.445460 (bioRxiv, 2021)
